Measured values from paper PMC11274412, “Characterization of Receptor Binding Affinity for Vascular Endothelial Growth Factor with Interferometric Imaging Sensor” (Biosensors, 2024).

Legend:
[1] = biological target: T1, Aflibercept (Eylea); assay: Interferometric Reflectance Imaging Sensor (IRIS); equilibrium IRIS signal on drug spots against VEGF concentration, fitted with the Langmuir isotherm; settings: both partners purified
T1 chain: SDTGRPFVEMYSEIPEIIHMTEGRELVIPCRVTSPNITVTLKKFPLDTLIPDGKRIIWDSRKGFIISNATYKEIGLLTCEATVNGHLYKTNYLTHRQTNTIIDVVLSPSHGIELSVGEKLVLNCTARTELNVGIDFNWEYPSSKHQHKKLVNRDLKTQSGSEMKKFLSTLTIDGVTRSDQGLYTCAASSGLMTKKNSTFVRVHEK

[2] = biological target: T1, Aflibercept (Eylea); assay: Interferometric Reflectance Imaging Sensor (IRIS); equilibrium IRIS signal on drug spots against VEGF concentration, fitted with the Langmuir-Freundlich isotherm; settings: both partners purified

- Ka [1]: 1.05e+09 M⁻¹
- Kd [1]: 17.5 nM
- Ka [2]: 1.5e+08 M⁻¹
- Kd [2]: 66 nM
B1: Recombinant human VEGF165 protein (ligand)
chain: APMAEGGGQNHHEVVKFMDVYQRSYCHPIETLVDIFQEYPDEIEYIFKPSCVPLMRCGGCCNDEGLECVPTEESNITMQIMRIKPHQGQHIGEMSFLQHNKCECRPKKDRARQENPCGPCSERRKHLFVQDPQTCKCSCKNTDSRCKARQLELNERTCRCDKPRR
modifications: disulfide-linked homodimer; N-glycosylated (HEK293 expressed); limits are the conventional mature VEGF165 (191-aa precursor minus 26-aa signal) / human IgG1 Fc (C-terminal, dimerizing …)
